# Measurements published in patent publication US20210363266A1 (JIANGSU HENGRUI MEDICINE, published 2021).
# Where two headings read alike, the source gives them in different places.
# B1: murine mAb B1E7 (antibody, V domains shown)
# VH: EVQLQQSGAELVRAGSSVEMSCKASGYTFTSYGLNWVKQRPGQGLEWIGYINPGSGYTKYNEKFEGKTTLTVDKSSSTVYMQLRSLTSEDSAVYFCARWGLGRNWNFAVWGTGTTVTVSS
# VL: DIVLTQSPASLAVSLGQRATMSCRASESVDSYGNTFMHWYQQKPGQPPKLLIYRASNLESGIPARFSGSGSGTDFTLTINPVEADDVATYYCQQSNEDPLTFGSGTKLEIK
# notes: Murine hybridoma antibody
# B2: chimeric antibody ChB1E7 (antibody, V domains shown)
# VH: B1 VH
# VL: B1 VL
# B3: MOR7480 (Pfizer) (antibody, V domains shown)
# VH: QVQLVQSGAEVKKPGESLKISCKGSGYSFSTYWISWVRQMPGKGLEWMGKIYPGDSYTNYSPSFQGQVTISADKSISTAYLQWSSLKASDTAMYYCARGYGIFDYWGQGTLVTVSS
# VL: DIELTQPPSVSVAPGQTARISCSGDNIGDQYAHWYQQKPGQAPVVVIYQDKNRPSGIPERFSGSNSGNTATLTISGTQAEDEADYYCATYTGFGSLAVFGGGTKLTVL
# B4: humanized antibody huB1E10 (VH-c heavy chain and VL-c light chain) (antibody, human IgG2, kappa, V domains shown)
# VH: EVQLVESGGGVVQPGRSLRLSCAASGFTFGDYYMYWVRQAPGKGLEWVATISEGGSYTYYPDNVKGRFTISRDNAKNTLYLQMNSLRAEDTAVYYCARYYSKALYAMDYWGRGTLVTVSS
# VL: EIVLTQSPATLSLSPGERATLSCRASKSVSTSGFSYIHWYQQKPGQPPRLLIYTASNLESGVPARFSGSGSGTDFTLTISSLEPEDFAVYYCQHSRELPLTFGQGTKLEVKR
# notes: also called huB1E10-IgG1
# B5: humanized antibody huB1E7 (VH-c heavy chain and VL-c light chain) (antibody, human IgG2, kappa, V domains shown)
# VH: EVQLVQSGAEVKKPGSSVKVSCKASGYTFTSYGLNWVRQAPGQGLEWMGYINPGSGYTKYNEKFEGRVTITADKSTSTAYMELSSLRSEDTAVYYCARWGLGRNWNFAVWGQGTLVTVSS
# VL: DIVMTQSPDSLAVSLGERATINCRASESVDSYGNTFMHWYQQKPGQPPKLLIYRASNLESGVPDRFSGSGSGTDFTLTISSLQAEDVAVYYCQQSNEDPLTFGQGTKLEIKR
# notes: also called huB1E7-IgG1
# B6: murine mAb B1E10 (antibody, V domains shown)
# VH: EVQLVESGGGLVEPGGSLKLSCAASGFTFGDYYMYWVRQTPEKRLEWVATISDGGSYTYYPDNVKGRFTISRDNAKNSLDLQMSHLKSEDTAMYYCARYYSKALYAMDYWGRGTSVTVSS
# VL: DIVLTQSPASLAVSLGQRATLSCRASKSVSTSGFSYIHWYQQKPGQPPKLLIYTASNLESGVPARFSGSGSGTDFTLNIHPVEEEDAATYYCQHSRELPLTFGAGTKLEVK
# notes: Murine hybridoma antibody
# B7: chimeric antibody ChB1E10 (antibody, V domains shown)
# VH: B6 VH
# VL: B6 VL
# B8: murine mAb B1A7 (antibody, V domains shown)
# VH: QVTLKESGPGILQPSQTLSLTCSFSGFSLSTSGMGVGWIRQPSGKGLEWLAHIWWDDVKRYNPALKSRLTISKDTSSSQVFLKIASVDTADTATYYCAQMTSSVFAYWGQGTLVTVSA
# VL: DIVLTQSPDSLAVSLGQRATISCRASESVDSYGHSFMHWYQQKPGQPPKLLIYRASNLESGIPARFSGSGSRTDFTLTINVVEADDVATYYCHQSYEEPWTFGGGTKLEIK
# notes: Murine hybridoma antibody
# What was measured:
# [1] = target: T1, human 4-1BB His protein (Sinobiological, Beijing #10041-H08H) (human, UniProt Q07011 24-186, biotinylated in the capture ELISA (sites not given)); assay: blocking ELISA: 4-1BB-his coated, antibody varied, competitor 4-1BBL-Fc at 0.8 ng/ml
# T1 construct: Bought protein; also called biotinylated 4-1BB-his protein; not shown: His tag
# Experimental: (§1) The 4-1BB-his protein was diluted to a concentration of 2 μg/ml with a carbonate buffer pH 9.6, and added into a 96-well microtiter plate at a volume of 100 μl/well, and placed in an incubator at 37° C. for 2 hours. The plate was washed once with PBST, 200 μl/well of 5% skim milk (skim milk powder, Bright Dairy) blocking solution diluted with PBST was added, and incubated at 37° C. for 2 hours or at 4° C. overnight (16-18 hours) for blocking. After the blocking was finished, the blocking solution was discarded and the plate was washed 4 times with PBST.
# The test mouse sera or antibodies and internal control 4-1BBL were diluted to various concentrations with a sample diluent solution (2.5% skim milk in PBST), added into a plate at 100 μl/well, and incubated in an incubator at 37° C. for 40 minutes. After the incubation, the plate was washed 4 times with PBST, 100 μl/well of 0.8 ng/ml 4-1BBL-Fc (Acro, #41L-H5257) protein diluted with a sample dilution solution was added, and incubated at 37° C. for 40 minutes. […] The absorbance was read at 450 nm under a microplate reader (Beijing Prang New Technology Co., Ltd., Model DNM-9602) and the resulting data were analyzed. […]
# [2] = target: T1, human 4-1BB His protein …; assay: capture ELISA, antibody captured, biotinylated 4-1BB-his
# Experimental: as §1, with “goat anti-mouse IgG secondary antibody (Jackson Immuno Research, cat #115-006-071)” for “4-1BB-his protein”, “PBS buffer,” for “a carbonate buffer”, “7.4,” for “9.6, and”, “at” for “at a volume of”
# The test mouse sera or antibodies were diluted to various concentrations with 5% NHS sample dilution solution (2.5% skim milk in PBST), incubated at room temperature for 40 minutes, added into the plate at 100 μl/well, and incubated at 37° C. for 40 minutes. After the incubation, the plate was washed 4 times with PBST, 100 μl/well of the biotinylated 4-1BB-his protein (Sinobiological, Beijing #10041-H08H) diluted with the sample dilution solution was added, and incubated at 37° C. for 40 minutes. After the incubation, the plate was washed 4 times with PBST, 100 μl/well of HRP-labeled streptavidin (Jackson Immuno Research, cat #016-030-084) diluted with PBST was added, and incubated at 37° C. for 40 minutes. The plate was washed 4 times with PBST, 100 μl/well of TMB chromogenic substrate (Huzhou Innoreagents Biotechnology Co., Ltd.) was added, incubated at room temperature for 10-15 min in the dark, and 50 μl/well 1M H₂SO₄ was added to terminate the reaction. The absorbance was read at 450 nm under a microplate reader (Beijing Prang New Technology Co., Ltd., Model DNM-9602) and the resulting data were analyzed. The capture ELISA results of three hybridoma mouse antibodies and the Pfizer reference antibody MOR7480 and the BMS reference antibody Urelumab were shown in FIG. 1.
# [3] = target: human 4-1BB on the reporter cell strain HEK293F-h4-1BB-NFkB (human, UniProt Q07011 24-255); assay: cell-based or functional assay
# human 4-1BB on the reporter cell strain HEK293F-h4-1BB-NFkB, sequence (Q07011 24-255): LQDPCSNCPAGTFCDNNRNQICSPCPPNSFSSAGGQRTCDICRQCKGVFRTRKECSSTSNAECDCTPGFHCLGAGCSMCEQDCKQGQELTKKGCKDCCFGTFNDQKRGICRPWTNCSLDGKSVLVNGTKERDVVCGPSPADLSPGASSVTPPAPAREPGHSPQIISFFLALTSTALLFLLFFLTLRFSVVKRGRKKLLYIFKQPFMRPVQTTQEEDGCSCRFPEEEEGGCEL
# [4] = target: T1, human 4-1BB His protein …; assay: SPR Biacore T200, antibody amine-coupled, 4-1BB His as analyte, 1:1 model
# Experimental: (§2) The recombinant anti-4-1BB antibodies to be tested of the present application were covalently linked to CMS (GE) chip by NHS standard amino coupling method with a kit available from Biacore. Then, a series of gradient concentrations of human 4-1BB His protein (Sinobiological, Beijing #10041-H08H) diluted in the same buffer were injected at a flow rate of 10 μL/min. Regeneration was performed with regeneration reagents provided in the kit. Antigen-antibody binding kinetics were followed for 3 minutes and dissociation kinetics were followed for 10 minutes. The resulting data were analyzed using 1:1 (Langmuir) binding model with BIAevaluation software available from GE.
# [5] = target: T1, human 4-1BB His protein …; assay: as above; remark: listed apart in the source
# Experimental: as §2
# [6] = target: T1, human 4-1BB His protein …; assay: SPR Biacore T200
Binder,EC50 [1] [µg/mL],EC50 [2] [µg/mL],luciferase activity [3],Kd [4] [nM],koff [4] [s⁻¹],kon [4] [M⁻¹ s⁻¹],Kd [5] [nM],koff [5] [s⁻¹],kon [5] [M⁻¹ s⁻¹],fold affinity against the reference antibody MOR7480 [6] [fold]
B1,0.592,0.332,1100,–,–,–,–,–,–,–
B2,–,–,–,1.48,0.006,4.05e+06,–,–,–,–
B3,–,0.084,–,0.417,0.000336,805000,0.417,0.000336,805000,–
B4,–,–,–,–,–,–,0.267,0.00263,9.85e+06,~2
B5,–,–,–,–,–,–,1.95,0.00663,3.39e+06,–
B6,–,0.881,2520,–,–,–,–,–,–,–
B7,–,–,–,0.423,0.000542,1.28e+06,–,–,–,–
B8,0.417,0.0559,965,–,–,–,–,–,–,–
